{"source": "the DeepSol protein solubility set", "data": [{"experiment": "soluble on expression in E. coli; label from the status in PepcDB or PDB records", "values": [{"sequence": "MIAAQLLAYYFTELKDDQVKKIDKYLYAMRLSDETLIDIMTRFRKEMKNGLSRDFNPTATVKMLPTFVRSIPDGSEKGDFIALDLGGSSFRILRVQVNHEKNQNVHMESEVYDTPENIVHGSGSQLFDHVAECLGDFMEKRKIKDKKLPVGFTFSFPCQQSKIDEAILITWTKRFKASGVEGADVVKLLNKAIKKRGDYDANIVAVVNDTVGTMMTCGYDDQHCEVGLIIGTGTNACYMEELRHIDLVEGDEGRMCINTEWGAFGDDGSLEDIRTEFDRAIDAYSLNPGKQLFEKMVSGMYLGELVRLILVKMAKEGLLFEGRITPELLTRGKFNTSDVSAIEKNKEGLHNAKEILTRLGVEPSDDDCVSVQHVCTIVSFRSANLVAATLGAILNRLRDNKGTPRLRTTVGVDGSLYKTHPQYSRRFHKTLRRLVPDSDVRFLLSESGSGKGAAMVTAVAYRLAEQHRQIEETLAHFHLTKDMLLEVKKRMRAEMELGLRKQTHNNAVVKMLPSFVRRTPDGTENGDFLALDLGGTNFRVLLVKIRSGKKRTVEMHNKIYAIPIEIMQGTGEELFDHIVSCISDFLDYMGIKGPRMPLGFTFSFPCQQTSLDAGILITWTKGFKATDCVGHDVVTLLRDAIKRREEFDLDVVAVVNDTVGTMMTCAYEEPTCEVGLIVGTGSNACYMEEMKNVEMVEGDQGQMCINMEWGAFGDNGCLDDIRTHYDRLVDEYSLNAGKQRYEKMISGMYLGEIVRNILIDFTKKGFLFRGQISETLKTRGIFETKFLSQIESDRLALLQVRAILQQLGLNSTCDDSILVKTVCGVVSRRAAQLCGAGMAAVVDKIRENRGLDRLNVTVGVDGTLYKLHPHFSRIMHQTVKELSPKCNVSFLLSEDGSGKGAALITAVGVRLRTEASS", "soluble on expression in E. coli": "soluble"}, {"sequence": "MHRSFPRLVRSQGNLLKGMFGKSGEKEAVKQLTLEEQESLRKTLPSIRARESTQVTASADSVTEFDDDLLTMSRIDTDAIRARGFLKYTQNYVPGVDVKNQVLEAASSCLRSAGVKSENVDQYKFVEGDNSVKFELLNRLGKSIEHWPTNGKLLHLETVADVVEFYQTPVKNVTKYTEMARDENKPKNVSIMEHAARFHPEDTHMYHGGITAFPGSGGEVLSLRQKRLLRQFQPKKEWFDYDDQTFDYTRPDKNMPWDPEVANQMDKYTDKRYNLKTKQFTRIRQ", "soluble on expression in E. coli": "not soluble"}, {"sequence": "MAQSKESPDEAKQDEIIFNIGDTINDYEIVSKIDEGGFGQVFKVTKDHKTFYAMKLESNFQVGGSAIKLEINVLSQLPKNTVFPELICGGKRPRYHFLVLELLGDNLKALKAQSPNPSVFSDGTWSRIGIQCLYAMKMMHDSGFVHRDIKPSNFAIGYSTASESRSRRVLLFDFGLARKFVKKEKNLAPIVTKKESKISKSKTLPSKGPSTKSKDLKPGRSKPILNRKAEQMKIKKNFNMLIPPKSIDQSQRTAEEKVDDEEFTFRRARPHTDFRGTFQYASPNAHLQLELGRHDDIWSLMYMVAEFFVELPWTSNEEIALEELKNQSSILRLFSDGKNIVSSWIHDRIFSDKNPSRLTPEMRGQLDEIDKNLKSCNYYSSPKYDIVYQFFKDSMTKAKVTWTTPYDWETIGKSSEDFSKKSNGKRAVWENPGAFFKKGRWDALPLPLQSPHISIRKSSSKHPKPSAKGSKKAVQARIQNFSKEDSVEADEAPTPMLKSTKKDGMGGQKGGLKGSIE", "soluble on expression in E. coli": "not soluble"}, {"sequence": "MGSDKIHHHHHHMRFRERRFYMFYGKLQGENGDRFRAALQTMQELFGSVYASDNLIGLQRAGGFREDKKFVETLRRNAQTQQELSIAWRLHTLLWAAQNVMHLPGDFVECGVWKGFCFAFLTDYLDFAKSDKTLYLYDTYQGIPEAMNSEKRSNQVYEKDIAQDPNAILKVVQQRFANVPNARIVQGMVPDSFAEACPERIALLHIDMNSAASEIAALEALFDKVVPGGMIVFDDYGWTGYAAQRHAENAFMAARGHTVLEIPTGQGLVIKH", "soluble on expression in E. coli": "not soluble"}, {"sequence": "MGSDKIHHHHHHMRLKVSFQAMESTVPLNYNYFLSSFIYKRLASQNENFARFLHEKGYGKRFKFFTFSQLFFENSRVSGERIFIFPGKGWWYISSPVVEFVRYMFSSLSEDPVIRVGKTEFIVKSIDIENSLPDQSEYHFVMLSPLVVSVPEENNGKLYHRYLHPGEEEFYEVFRKNLMKKYRAFYGKDPEGTVEVIPDWDYIKSRHRITKRIKLKNAFVRAVVFPFKIRGEKKLVEIGYEAGFGEKNSMGFGMVALKKYER", "soluble on expression in E. coli": "not soluble"}, {"sequence": "MLERLKAITNLLKGALEQRSRAEEGYIREEKVKEAIELLEALERDIMEKELKLAKEALEKFDSNRKFYYLVGKLYVEVSKEEAQKLIEDELKMFGGEGK", "soluble on expression in E. coli": "not soluble"}, {"sequence": "MDHYLVPYNQRANHSKPIPPFLLDLDSQSVPDALKKQTNDYYILYNPALPREIDVELHKSLDHTSVVCCVKFSNDGEYLATGCNKTTQVYRVSDGSLVARLSDDSAANKDPENLNTSSSPSSDLYIRSVCFSPDGKFLATGAEDRLIRIWDIENRKIVMILQGHEQDIYSLDYFPSGDKLVSGSGDRTVRIWDLRTGQCSLTLSIEDGVTTVAVSPGDGKYIAAGSLDRAVRVWDSETGFLVERLDSENESGTGHKDSVYSVVFTRDGQSVVSGSLDRSVKLWNLQNANNKSDSKTPNSGTCEVTYIGHKDFVLSVATTQNDEYILSGSKDRGVLFWDKKSGNPLLMLQGHRNSVISVAVANGSSLGPEYNVFATGSGDCKARIWKYKKIAPN", "soluble on expression in E. coli": "soluble"}, {"sequence": "MSPNHVDHLVLPVAQIDIATARLANLGFTVAPLAVHPFGTANACVFLADGTYLEPLAVNDPAKYGESANRGDVFTGRDRAFRESCGPEGFSALVARSGDAFVDHERFVAAGLSAGDLFEFSRPVQMPDGSRSEAAFRLAFAASGAAADFFLFGCQRLKALPGDRTELERHANAVTGLFEIVLFSGGDAKAARLIETVFGCKSAMSPGGDMVFATGNARIRLTEKPAVADLDLNTSNRGDGGLRGAGIVFSVTDLAVTAAVLAANGVSSMEAGGRLVVPAAPGQGVAFAFEEI", "soluble on expression in E. coli": "not soluble"}, {"sequence": "MGSDKIHHHHHHMNLEQILLAISNPNDNELTIAGLEAAKVNWSVFYPELERLMDQFIADDTSLTDEQEAIVFFGTLLLAELKYSPALAKCLQLFARSDTYLTPIEAIFGDALTELTATLFFNVADGSTQTLSDYIVDGHQAMYCKASAIEAVFAQYEVGVIDKTELVEHVTRWLAAFLALPSSNNSFLISVLADSCIKYQLDDFKPQFIDLCDNDLFDEDRFKQCEVKAWDKANAAKLIESGNIQTKFNVVDTLNAWIVDDSNNEVADNMSNEDSDAFESLMGEDGLLADILYDENTILENSVPVSSLPTAGRNDPCPCGSGKKYKKCCLR", "soluble on expression in E. coli": "not soluble"}, {"sequence": "MFLGTYTPKLDDKGRLTLPAKFRDALAGGLMVTKSQDHSLAVYPRAAFEQLARRASKAPRSNPEARAFLRNLAAGTDEQHPDSQGRITLSADHRRYASLSKDCVVIGAVDYLEIWDAQAWQNYQQIHEENFSAASDEALGDIF", "soluble on expression in E. coli": "not soluble"}, {"sequence": "MEKKVQIAVYENENFKRVAEIVKKKSIATVCEEALCPNIMECWGSGTATFMIMGSICTRGCRFCYVLKGKPSPLDDEEPKRVAEAVKEMELDYVVITSVDRDDLSDGGAQHFANVVKTVKELNPGIIVEVLTPDFRGNIDAVKKVIDAGVDVFAHNVETVRRLTPIVRDPRASYEQSLNVLKYAENVIKKSSILLGLGETWDEIVETMRDLRSVGVSILVLSQYMRPSRKQLEVKKRYTLEEFKELEEIAYSMGFSAVISLPLARTSYKAKEAYFRAIENAKNHS", "soluble on expression in E. coli": "not soluble"}, {"sequence": "MSLTGMLKRKVIVVSGVGPGLGTTLAHRCARDGADLVLAARSAERLDDVAKQIIDTGRRAVAVRTDITDDDDVSNLVQATLAAYGKADVLINNAFRVPSMKPLAGTTFEHIRDAIELSALGTLRLIQAFTPALAQSHGAIVNVNSMVIRHSQPKYGTYKMAKSVLLAMSHSLATELGEQGIRVNSVAPGYIWGDTLKSYFDHQAGKYGTTVDQIYQATAANSDLKRLPTEDEVASAILFLASDLASGITGQTLDVNCGEYHTEGHHHHHH", "soluble on expression in E. coli": "soluble"}, {"sequence": "MGTKIIGTGVYLPKNVLTNFDLEKIVDTSDEWITTRTGIKERRIAKEETITYMATQAAKEALREANLSPEELDLIILATLTPQKRFPSTACLVQAQLKAKGVYAFDISAACSGFIYALDIADSFIKSGKAKNVLVIGAEKLSEAVDWEDRSTCVLFGDGAGAVVVTRSEDKSDILATRMYAEGSLEELLHADNCGYIRMKGRELFKVAVRSMEEVCREVLEKAGVKPEEVSLVIPHQANVRIINALAEKLNIPKEKVFVNIQKYGNTSAASIPIALHEAIKEGKVKRGDLILMTAMGGGLTWGAVLLRY", "soluble on expression in E. coli": "soluble"}]}]}
